Results from patent US20220177587A1, “METHODS AND USES OF VARIANT CD80 FUSION PROTEINS AND RELATED CONSTRUCTS” (Alpine Immune Sciences, Inc., priority 2018, published 2022).
Blank lines part the entries; values can stand above or below the substance they belong to.

Columns and labels:
CD28 (human) [1] = target: CD28 (human) (UniProt P10747); test: flow cytometry, Jurkat/IL2 reporter cells (endogenous CD28)
CD28 (human) [2] = target: CD28 (human) (UniProt P10747)
PD-L1 (human) [3] = target: PD-L1 (human) (UniProt Q9NZQ7)
Target sequence in this assay (Q9NZQ7 19-290): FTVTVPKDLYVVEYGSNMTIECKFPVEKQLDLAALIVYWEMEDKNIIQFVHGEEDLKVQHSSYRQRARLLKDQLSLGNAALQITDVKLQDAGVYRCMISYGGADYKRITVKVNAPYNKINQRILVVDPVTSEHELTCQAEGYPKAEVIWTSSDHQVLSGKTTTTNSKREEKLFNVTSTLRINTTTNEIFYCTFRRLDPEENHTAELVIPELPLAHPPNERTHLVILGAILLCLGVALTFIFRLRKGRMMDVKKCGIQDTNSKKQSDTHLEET

CD28 (human) [4] = target: CD28 (human) (UniProt P10747); remark: listed apart in the source
CD28 (human) [5] = target: CD28 (human) (UniProt P10747); test: flow cytometry, Expi293F cells transfected with CD28
PD-L1 (human) [6] = target: PD-L1 (human) (UniProt Q9NZQ7); test: flow cytometry, Expi293F cells transfected with PD-L1
human CTLA-4 (human) [7] = target: human CTLA-4 (human) (UniProt P16410); test: flow cytometry, Expi293F cells transfected with CTLA-4
CD28 (human) [8] = target: CD28 (human) (UniProt P10747); test: flow cytometry, Jurkat cells (CD28)
human CTLA-4 (human) [9] = target: human CTLA-4 (human) (UniProt P16410); test: flow cytometry, CHO cells stably expressing CTLA4
Target sequence in this assay (P16410 36-223): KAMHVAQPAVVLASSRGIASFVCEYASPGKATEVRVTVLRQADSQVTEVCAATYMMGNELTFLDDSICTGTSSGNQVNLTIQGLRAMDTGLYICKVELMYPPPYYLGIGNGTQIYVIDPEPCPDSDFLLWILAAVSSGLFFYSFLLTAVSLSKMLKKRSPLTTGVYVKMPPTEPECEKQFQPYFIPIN

PD-L1 (human) [10] = target: PD-L1 (human) (UniProt Q9NZQ7); test: flow cytometry, CHO cells stably expressing PD-L1
Target sequence in this assay (Q9NZQ7 19-290): as the sequence (Q9NZQ7 19-290) above

human CTLA-4 (human) [11] = target: human CTLA-4 (human) (UniProt P16410); test: flow cytometry, CHO cells expressing huCTLA4
Target sequence in this assay (P16410 36-223): as the sequence (P16410 36-223) above

PD-L1 (human) [12] = target: PD-L1 (human) (UniProt Q9NZQ7); test: flow cytometry, CHO cells expressing huPD-L1
Target sequence in this assay (Q9NZQ7 19-290): as the sequence (Q9NZQ7 19-290) above

- MFI at 33.3 nM (CD28 (human) [1]): 7540 MFI
Substance: variant CD80 IgV-Fc E35D/D46V/M47I/A71G/F92V (Fc fusion)

- Jurkat/IL2 reporter RLU at 50 nM, K562/OKT3/PD-L1 aAPC (CD28 (human) [2]): 4130 RLU
- Jurkat/IL2 reporter RLU at 50 nM, K562/OKT3 aAPC without PD-L1 (CD28 (human) [2]): 7020 RLU
- Jurkat/IL2 reporter RLU at 50 nM, K562/OKT3/PD-L1 aAPC (PD-L1 (human) [3]): 4130 RLU
- IL-2 release, primary T cells + K562/OKT3 (No PD-L1), 100 nM (CD28 (human) [4]): 25400
Substance: CD80 E35D/D46V/L85Q IgV-Fc (effector) (Fc fusion)

- Jurkat/IL2 reporter RLU at 50 nM, K562/OKT3/PD-L1 aAPC (CD28 (human) [2]): 2780 RLU
- Jurkat/IL2 reporter RLU at 50 nM, K562/OKT3 aAPC without PD-L1 (CD28 (human) [2]): 1570 RLU
- Jurkat/IL2 reporter RLU at 50 nM, K562/OKT3/PD-L1 aAPC (PD-L1 (human) [3]): 2780 RLU
- IL-2 release, primary T cells + K562/OKT3 (No PD-L1), 100 nM (CD28 (human) [4]): 10500
Substance: CD80 E35D/M43L/L70M IgV-Fc (effector) (Fc fusion)

- Jurkat/IL2 reporter RLU at 50 nM, K562/OKT3/PD-L1 aAPC (CD28 (human) [2]): 3870 RLU
- Jurkat/IL2 reporter RLU at 50 nM, K562/OKT3 aAPC without PD-L1 (CD28 (human) [2]): 5780 RLU
- Jurkat/IL2 reporter RLU at 50 nM, K562/OKT3/PD-L1 aAPC (PD-L1 (human) [3]): 3870 RLU
- IL-2 release, primary T cells + K562/OKT3 (No PD-L1), 100 nM (CD28 (human) [4]): 25300
Substance: CD80 E35D/M47I/L70M IgV-Fc (effector) (Fc fusion)

- MFI (CD28 (human) [5]): 100 MFI
- MFI (PD-L1 (human) [6]): 5 MFI
- parental ratio (PD-L1 (human) [6]): 0.08
- MFI (human CTLA-4 (human) [7]): 119 MFI
- parental ratio (human CTLA-4 (human) [7]): 0.57
Substance: CD80 R29H/E52G/L70R/E88G/A91G/T130A ECD-Fc (Fc fusion)

- Jurkat/IL2 reporter RLU at 50 nM, K562/OKT3/PD-L1 aAPC (CD28 (human) [2]): 2270 RLU
- Jurkat/IL2 reporter RLU at 50 nM, K562/OKT3 aAPC without PD-L1 (CD28 (human) [2]): 1200 RLU
- Jurkat/IL2 reporter RLU at 50 nM, K562/OKT3/PD-L1 aAPC (PD-L1 (human) [3]): 2270 RLU
- IL-2 release, primary T cells + K562/OKT3 (No PD-L1), 100 nM (CD28 (human) [4]): 8380
Substance: CD80 E35D IgV-Fc (effector) (Fc fusion)

- MFI (CD28 (human) [5]): 8 MFI
Substance: CD80 K36E/I67T/L70Q/A91G/I118V/T120S/T130A/N152T ECD-Fc (Fc fusion)

- MFI at 33.3 nM (CD28 (human) [8]): 2190 MFI
- MFI at 33.3 nM (human CTLA-4 (human) [9]): 19800 MFI
- MFI at 33.3 nM (PD-L1 (human) [10]): 9340 MFI
Substance: CD80 IgV-Fc H18Y/E35D/M47L/Y53F/V68M/A71G/K93R/E95V (Fc fusion)

- MFI (CD28 (human) [5]): 32 MFI
- parental ratio (CD28 (human) [5]): 0.34
- MFI (PD-L1 (human) [6]): 6 MFI
- parental ratio (PD-L1 (human) [6]): 0.08
- MFI (human CTLA-4 (human) [7]): 65 MFI
- parental ratio (human CTLA-4 (human) [7]): 0.31
Substance: CD80 T28S/L70Q/A91G/E95K/I118V/T120S/I126V/T130A/K169E ECD-Fc (Fc fusion)

- Jurkat/IL2 reporter RLU at 50 nM, K562/OKT3/PD-L1 aAPC (CD28 (human) [2]): 4030 RLU
- Jurkat/IL2 reporter RLU at 50 nM, K562/OKT3 aAPC without PD-L1 (CD28 (human) [2]): 7110 RLU
- Jurkat/IL2 reporter RLU at 50 nM, K562/OKT3/PD-L1 aAPC (PD-L1 (human) [3]): 4030 RLU
- IL-2 release, primary T cells + K562/OKT3 (No PD-L1), 100 nM (CD28 (human) [4]): 21300
Substance: CD80 A71D/L72V/E95K IgV-Fc (effector) (Fc fusion)

- MFI at 33.3 nM (human CTLA-4 (human) [11]): 2680 MFI
- MFI at 33.3 nM (PD-L1 (human) [12]): 21400 MFI
Substance: variant CD80 IgV-Fc Q33R/E35D/M47V/N48K/L85M/F92L (Fc fusion)

- Jurkat/IL2 reporter RLU at 50 nM, K562/OKT3/PD-L1 aAPC (CD28 (human) [2]): 805 RLU
- Jurkat/IL2 reporter RLU at 50 nM, K562/OKT3 aAPC without PD-L1 (CD28 (human) [2]): 1510 RLU
- Jurkat/IL2 reporter RLU at 50 nM, K562/OKT3/PD-L1 aAPC (PD-L1 (human) [3]): 805 RLU
Substance: CD80 E35G/K54E/A71D/L72P IgV-Fc (effector) (Fc fusion)

- MFI at 33.3 nM (CD28 (human) [8]): 455 MFI
- Fold change to WT CD80 (human CTLA-4 (human) [9]): 18.6 fold
- MFI at 33.3 nM (human CTLA-4 (human) [9]): 19400 MFI
- Fold change to WT CD80 (PD-L1 (human) [10]): 25.9 fold
- MFI at 33.3 nM (PD-L1 (human) [10]): 1840 MFI
Substance: CD80 IgV-Fc H18Y/E35D/V68M/A71G/R94Q/E95V (Fc fusion)

- MFI (CD28 (human) [5]): 105 MFI
- MFI (PD-L1 (human) [6]): 9 MFI
- parental ratio (PD-L1 (human) [6]): 0.13
- MFI (human CTLA-4 (human) [7]): 200 MFI
- parental ratio (human CTLA-4 (human) [7]): 0.96
Substance: CD80 V20L/L70Q/A91S/I118V/T120S/T130A ECD-Fc (Fc fusion)

- MFI at 33.3 nM (CD28 (human) [8]): 2600 MFI
- MFI at 33.3 nM (human CTLA-4 (human) [9]): 18000 MFI
- MFI at 33.3 nM (PD-L1 (human) [10]): 9630 MFI
Substance: CD80 IgV-Fc H18Y/E35D/M47L/V68M/E95V/L97Q (Fc fusion)

- MFI at 33.3 nM (PD-L1 (human) [12]): 19400 MFI
Substance: variant CD80 IgV-Fc E35D/M38T/D46E/M47V/N48S (Fc fusion)

- MFI (CD28 (human) [5]): 68 MFI
- parental ratio (CD28 (human) [5]): 0.71
- MFI (PD-L1 (human) [6]): 5 MFI
- parental ratio (PD-L1 (human) [6]): 0.08
- MFI (human CTLA-4 (human) [7]): 131 MFI
- parental ratio (human CTLA-4 (human) [7]): 0.63
Substance: CD80 K54M/L70Q/A91G/Y164H ECD-Fc (SEQ ID NO 1399) (Fc fusion)

- Jurkat/IL2 reporter RLU at 50 nM, K562/OKT3/PD-L1 aAPC (CD28 (human) [2]): 5700 RLU
- Jurkat/IL2 reporter RLU at 50 nM, K562/OKT3 aAPC without PD-L1 (CD28 (human) [2]): 7140 RLU
- Jurkat/IL2 reporter RLU at 50 nM, K562/OKT3/PD-L1 aAPC (PD-L1 (human) [3]): 5700 RLU
- IL-2 release, primary T cells + K562/OKT3 (No PD-L1), 100 nM (CD28 (human) [4]): 27200
Substance: CD80 E35D/M47I IgV-Fc (effector) (Fc fusion)

- Jurkat/IL2 reporter RLU at 50 nM, K562/OKT3/PD-L1 aAPC (CD28 (human) [2]): 2640 RLU
- Jurkat/IL2 reporter RLU at 50 nM, K562/OKT3 aAPC without PD-L1 (CD28 (human) [2]): 1330 RLU
- Jurkat/IL2 reporter RLU at 50 nM, K562/OKT3/PD-L1 aAPC (PD-L1 (human) [3]): 2640 RLU
Substance: CD80 A26E/E35D/M47L/L85Q IgV-Fc (effector) (Fc fusion)
